Results from patent US9745384B2, “Peptides useful for modulating histone demethylase function” (The Brigham and Women's Hospital, Inc., priority 2012, dated 2017).

Tests used:
[1] = system: double strand DNA; test: DNA binding assay (GST-pulldown)
Description: 5-10 μg GST and GST-tagged NPAC truncation proteins were incubated with 1 μg linearized plasmid DNA overnight at 4° C. in 50 mM Tris pH 7.4, 200 mM NaCl, 0.2% NP-40, 1 mM MgCl2, 1 mM EDTA, 1 mM DTT, 0.02 mM ZnSO4. After extensive washing with the same buffer, bound DNA was eluted by incubating with 100 μl 10 mM Tris pH 8.0, 1% SDS for 15 minutes at 65° C. Pulldown DNA was purified using Qiagen PCR purification kit, resolved by agarose gel electrophoresis and stained with Ethidium Bromide.

[2] = system: H3Kc36me3 nucleosomes; test: MLA nucleosome pulldown by GST-NPAC.d1; type: binding; settings: H3Kc36me3, H3Kc79me3, H3Kc9me3, H3Kc27me3, unmodified
Description: MLA nucleosomes were reconstituted using 147 bp double-strand alpha satellite DNA and recombinant histones expressed and purified from E. coli. Tri-methylation was chemically introduced to H3K9C, H3K27C, H3K36C and H3K79C histones respectively as described (Simon et al., 2007). 2 μg MLA nucleosome was used for GST-pulldown as described above.

[3] = system: nucleosomes purified from HeLa; test: Nucleosome pulldown by GST-NPAC proteins; type: binding
Description: Nucleosomes were purified from HeLa as previously described (Umlauf et al., 2004). To examine nucleosome binding selectivity of NPAC, 5 μg GST fusion protein bound to glutathione agarose were incubated with 20 μg nucleosomes overnight at 4° C. in nucleosome binding buffer (50 mM NaPO4 pH 7.4, 200 mM NaCl, 0.5% NP-40, 5% glycerol, 10 μM ZnSO4, 1 mM MgCl2, 1 mM DTT, 0.1 mM PMSF). After washing 4 times with the same buffer at 4° C., the beads were boiled in 1×SDS sample loading buffer and elute was resolved by 15% SDS-PAGE for immunoblot analysis or coomassie staining.
For free-DNA competition assays, human genomic DNA was purified from HeLa cells and fragmented to an average size around 300 bp by sonication. Equal amounts of GST-NPAC.d5 bound to glutathione beads were pre-incubated with 0, 5, 10, 25 μg genomic DNA fragments in nucleosome binding buffer for 30 minutes at room temperature, and equal amounts of nucleosomes were added and incubated overnight at 4° C. After extensive washing, GST-NPAC.d5 and bound nucleosomes were eluted by boiling in 1×SDS sample loading buffer, resolved by SDS-PAGE and stained with coomassie blue.

DNA binding (GST-pulldown) [1]: can bind to double strand DNA
Nucleosome binding (GST-pulldown) [3]: strong binding to nucleosomes
B1: NPAC.d1: Example 2 GST-NPAC truncation, residues 1-150 (protein, UniProt Q49A26 1-150, looked up, fragment)
chain: MAAVSLRLGDLVWGKLGRYPPWPGKIVNPPKDLKKPRGKKCFFVKFFGTEDHAWIKVEQLKPYHAHKEEMIKINKGKRFQQAVDAVEEFLRRAKGKDQTSSHNSSDDKNRRNSSEERSRPNSGDEKRKLSLSEGKVKKNMGEGKKRVSSG
modifications: GST tag
Binding to modification-specific MLA nucleosomes [2]: highest binding affinity for H3Kc36me3 nucleosomes over H3Kc79me3
